# Data from patent US20040002582A1 (University of Texas, published 2004).
# No end group written: not given here.
# Experiments:
# LGT virus = molecular target: T1, LGT virus (Langat virus, UniProt P29837 281-776); experiment: cell-based or functional assay
# T1 sequence: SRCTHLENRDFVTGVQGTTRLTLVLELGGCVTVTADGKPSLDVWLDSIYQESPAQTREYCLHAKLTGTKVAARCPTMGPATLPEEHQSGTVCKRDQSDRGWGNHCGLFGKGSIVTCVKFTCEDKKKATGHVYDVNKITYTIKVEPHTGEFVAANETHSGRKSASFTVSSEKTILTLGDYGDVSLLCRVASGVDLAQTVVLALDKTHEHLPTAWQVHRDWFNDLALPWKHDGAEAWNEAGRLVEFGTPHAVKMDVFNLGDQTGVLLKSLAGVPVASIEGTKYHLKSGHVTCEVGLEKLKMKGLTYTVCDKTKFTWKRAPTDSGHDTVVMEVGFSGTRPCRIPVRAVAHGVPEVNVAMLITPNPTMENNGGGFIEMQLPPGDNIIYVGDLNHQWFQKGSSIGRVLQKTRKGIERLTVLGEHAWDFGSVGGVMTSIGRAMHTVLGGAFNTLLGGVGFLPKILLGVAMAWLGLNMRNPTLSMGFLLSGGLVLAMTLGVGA
# POW-E-D3 = molecular target: T2, POW-E-D3 (Powassan virus, UniProt Q04538 579-674)
# T2 sequence: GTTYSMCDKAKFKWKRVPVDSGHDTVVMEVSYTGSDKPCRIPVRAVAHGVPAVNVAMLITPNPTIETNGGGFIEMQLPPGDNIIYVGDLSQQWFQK
binder,measurement,setting,value
"RCCHPQCKEGKKCR (designed binder, not fully specified; cysteine pairing not given here) [MP-100]",reduction of viral titer in Vero cells at 24 hpi,LGT virus,~300 fold
same,reduction of viral titer in Vero cells at 36 hpi,LGT virus,~100 fold
same,level of enrichment (ratio of enriched signal/library signal),POW-E-D3,> 1.5 ratio of enriched signal/library signal
